According to paper PMC6716676, “Chemokine signaling links cell-cycle progression and cilia formation for left–right symmetry breaking” (PLoS Biology, 2019):
Changes are numbered by the printed parent chain. Names may count otherwise.

B1: Flag-zFoxj1a (zebrafish forkhead box j1a) (natural protein, UniProt F1QDF8 1-458, looked up)
chain: MLSMSSMDPWPEGSVGLEEEVVTAAAQAERLDTSTPLQCNTSLDSDNLDDSLTSLQWLQEFSILNASTGQHTSPSSHSHLMGSDAPSSPLAGDPASIGMPLTPGKPTAASFCRVPMFSALPSLVAHGHCPDEVDYKSNPHIKPPYSYATLICMAMQASKKTKITLSCIYKWITDNFCYFRHADPTWQNSIRHNLSLNKCFIKVPRQKDEPGKGGFWKIDPQYAERLLNGAYKKRRLPPVQINPALQHRLRMNAQATGVISRNLSVSPESQQLLKDFEEATSADQNWDPRLAEATMLSCWISGKGTNKRKQPYNHRTGKTPRRSSSPLLVMDEQEDLSSLRGNFDWDALLDSALNGELSLNEGSPLSPTPQDEELMIRGTHISPQEAPVENHVLMETQRSGDEDFDEETFLATAFLQSPWSEVDESNRSDFLGSSTVSIDQLFDLSFGGDLSSKIETLL
notes: forkhead box j1a (Foxj1a), zebrafish; In the self-association co-IP the second copy carried an HA tag instead of Flag (HA-zFoxj1a); also called Flag-tagged zFoxj1a; wild-type zFoxj1a; source: HEK293T, transfected, in lysate
B2: Flag-zFoxj1a-T102D (natural protein, zebrafish, UniProt F1QDF8 1-458, looked up)
chain: B1 chain with T102D
notes: forkhead box j1a (Foxj1a), zebrafish; In the self-association co-IP the second copy was differently tagged (HA); also called phospho-mimicking mutant of zFoxj1a; T102D mutant; source: HEK293T, transfected, in lysate

Key:
[1] = molecular target: zFoxj1a (zebrafish Foxj1a) (UniProt F1QDF8); test: co-IP of Flag- and HA-tagged zFoxj1a; settings: reference: wild type (both tagged copies); sites T102
[2] = molecular target: the molecule itself; test: native gel or EMSA; whole-cell lysates of HEK293T cells with overexpressed Flag-tagged zFoxj1a or its mutants separated on SDS- and native PAGEs

Molecule	binding against the reference [1]	stoichiometry N [2]
zFoxj1a (zebrafish Foxj1a) (from UniProt F1QDF8) T102A (both tagged copies)	weaker	–
B1	–	2
B2	–	2
